This note sets out measurements from paper PMC5678894 (Biochemistry, 2017).

This data set deals with the molecule itself. The data set is described as follows: small angle neutron scattering.

B1: Chymotrypsin-truncated R67 dihydrofolate reductase (domain or fragment)
chain: VFPSNATFGMGDRVRKKSGAAWQGQIVGWYCTNLTPEGYAVESEAHPGSVQIYPVAALERIN
B1: the binding result is reported as “binds”.

B2: Full-length R67 dihydrofolate reductase (enzyme)
chain: MIRSSNEVSNPVAGNFVFPSNATFGMGDRVRKKSGAAWQGQIVGWYCTNLTPEGYAVESEAHPGSVQIYPVAALERIN
Take B2: the binding result is reported as “binds”.
